From patent publication US20260193335A1 (ZOETIS SERVICES, published 2026)
Residue numbers refer to the chain shown, from its start. Numbers in names are those of the source.

B1: mAb4 (felinized anti-IL31 antibody ZTS-5864) S428Y and S434P, feline IgG1a (antibody)
heavy: DVQLVESGGDLVKPGGSLRLTCVASGFTFSDYAMSWVRQAPGKGLQWVAGIDSVGSGTSYADSVKGRFTISRDNAKNTLYLQMNSLKTEDTATYYCASGFPGSFEHWGQGTLVTVSSASTTAPSVFPLAPSCGTTSGATVALACLVLGYFPEPVTVSWNSGALTSGVHTFPAVLQASGLYSLSSMVTVPSSRWLSDTFTCNVAHPPSNTKVDKTVRKTDHPPGPKPCDCPKCPPPEMLGGPSIFIFPPKPKDTLSISRTPEVTCLVVDLGPDDSDVQITWFVDNTQVYTAKTSPREEQFNSTYRVVSVLPILHQDWLKGKEFKCKVNSKSLPSPIERTISKAKGQPHEPQVYVLPPAQEELSRNKVSVTCLIKSFHPPDIAVEWEITGQPEPENNYRTTPPQLDSDGTYFVYSKLSVDRSHWQRGNTYTCSVYHEALHPHHTQKSLTQSPGK
VL: QSVLTQPSSVSGTLGQRITISCTGSSSNIGSGYVGWYQQVPGMGPKTVIYYNSDRPSGVPDRFSGSKSGSSGTLTITGLQAEDEADYYCSVYDRTFNAVFGGGT
notes: also called mAb4 ID No. 30
B2: mAb4 (felinized anti-IL31 antibody ZTS-5864) S428Y and S434H, feline IgG1a (antibody)
heavy: B1 heavy with P439H
VL: B1 VL
notes: also called mAb4 ID No. 27
B3: mAb4 (felinized anti-IL31 antibody ZTS-5864) S428M and S434H, feline IgG1a (antibody)
heavy: B1 heavy with Y433M, P439H
VL: B1 VL
notes: also called mAb4 ID No. 32
B4: mAb4 (felinized anti-IL31 antibody ZTS-5864) S428M and S434L, feline IgG1a, ID No. 34 (antibody)
heavy: B1 heavy with Y433M, P439L
VL: B1 VL
notes: Same printed mutations as ID No. 49; also called mAb4 ID No. 34
B5: mAb4 (felinized anti-IL31 antibody ZTS-5864) S428Y and S434F, feline IgG1a (antibody)
heavy: B1 heavy with P439F
VL: B1 VL
notes: also called mAb4 ID No. 28
B6: mAb4 (felinized anti-IL31 antibody ZTS-5864) S428V, feline IgG1a (antibody)
heavy: B1 heavy with Y433V, P439S
VL: B1 VL
notes: also called mAb4 ID No. 18
B7: mAb4 (felinized anti-IL31 antibody ZTS-5864) S428Y and S434L, feline IgG1a (antibody)
heavy: B1 heavy with P439L
VL: B1 VL
notes: also called mAb4 ID No. 29
B8: mAb4 (felinized anti-IL31 antibody ZTS-5864) S428M and S434P, feline IgG1a, ID No. 35 (antibody)
heavy: B1 heavy with Y433M
VL: B1 VL
notes: Same printed mutations as ID No. 50; also called mAb4 ID No. 35
B9: mAb4 (felinized anti-IL31 antibody ZTS-5864) S428Y, feline IgG1a (antibody)
heavy: B1 heavy with P439S
VL: B1 VL
notes: also called mAb4 ID No. 20
B10: mAb4 (felinized anti-IL31 antibody ZTS-5864) S428E, feline IgG1a (antibody, part only; not given: light constant region, not shown: another chain or arm of the molecule)
heavy: B1 heavy with Y433E, P439S
VL: B1 VL
B11: mAb4 (felinized anti-IL31 antibody ZTS-5864) S428N, feline IgG1a (antibody, part only; not given: light constant region, not shown: another chain or arm of the molecule)
heavy: B1 heavy with Y433N, P439S
VL: B1 VL
B12: mAb4 (felinized anti-IL31 antibody ZTS-5864) S428H, feline IgG1a (antibody, part only; not given: light constant region, not shown: another chain or arm of the molecule)
heavy: B1 heavy with Y433H, P439S
VL: B1 VL
B13: mAb4 (felinized anti-IL31 antibody ZTS-5864) S428F, feline IgG1a (antibody, part only; not given: light constant region, not shown: another chain or arm of the molecule)
heavy: B1 heavy with Y433F, P439S
VL: B1 VL
B14: mAb4 (felinized anti-IL31 antibody ZTS-5864) S428I, feline IgG1a (antibody, part only; not given: light constant region, not shown: another chain or arm of the molecule)
heavy: B1 heavy with Y433I, P439S
VL: B1 VL
B15: mAb4 (felinized anti-IL31 antibody ZTS-5864) S428M, feline IgG1a (antibody, part only; not given: light constant region, not shown: another chain or arm of the molecule)
heavy: B1 heavy with Y433M, P439S
VL: B1 VL
B16: mAb4 (felinized anti-IL31 antibody ZTS-5864) S428K, feline IgG1a (antibody, part only; not given: light constant region, not shown: another chain or arm of the molecule)
heavy: B1 heavy with Y433K, P439S
VL: B1 VL
B17: mAb5 (felinized anti-IL31 antibody) S428L, feline IgG1a (antibody, part only; not given: variable domains of mAb5, not shown: another chain or arm of the molecule; small tags and cut ends)
constant: ASTTAPSVFPLAPSCGTTSGATVALACLVLGYFPEPVTVSWNSGALTSGVHTFPAVLQASGLYSLSSMVTVPSSRWLSDTFTCNVAHPPSNTKVDKTVRKTDHPPGPKPCDCPKCPPPEMLGGPSIFIFPPKPKDTLSISRTPEVTCLVVDLGPDDSDVQITWFVDNTQVYTAKTSPREEQFNSTYRVVSVLPILHQDWLKGKEFKCKVNSKSLPSPIERTISKAKGQPHEPQVYVLPPAQEELSRNKVSVTCLIKSFHPPDIAVEWEITGQPEPENNYRTTPPQLDSDGTYFVYSKLSVDRSHWQRGNTYTCSVLHEALHSHHTQKSLTQSPGK
B18: mAb5 (felinized anti-IL31 antibody) S428M and S434P, feline IgG1a (antibody, part only; not given: variable domains of mAb5, not shown: another chain or arm of the molecule; small tags and cut ends)
constant: B17 constant with L316M, S322P
B19: mAb5 (felinized anti-IL31 antibody) S428M and S434L, feline IgG1a (antibody, part only; not given: variable domains of mAb5, not shown: another chain or arm of the molecule; small tags and cut ends)
constant: B17 constant with L316M, S322L
B20: mAb6 anti-TGFβ antibody ZTS-120-1, wildtype (antibody)
heavy: QVQLVQSGAEVKKPGSSVKVSCKASGYTFSSNVISWVRQAPGQGLEWMGGVIPIVDIANYAQRFKGRVTITADESTSTTYMELSSLRSEDTAVYYCASTLGLVLDAMDYWGQGTLVTVSSASTTAPSVFPLAPSCGTTSGATVALACLVLGYFPEPVTVSWNSGALTSGVHTFPAVLQASGLYSLSSMVTVPSSRWLSDTFTCNVAHPPSNTKVDKTVRKTDHPPGPKPCDCPKCPPPEMLGGPSIFIFPPKPKDTLSISRTPEVTCLVVDLGPDDSDVQITWFVDNTQVYTAKTSPREEQFNSTYRVVSVLPILHQDWLKGKEFKCKVNSKSLPSPIERTISKAKGQPHEPQVYVLPPAQEELSRNKVSVTCLIKSFHPPDIAVEWEITGQPEPENNYRTTPPQLDSDGTYFVYSKLSVDRSHWQRGNTYTCSVSHEALHSHHTQKSLTQSPGK
light: ETVLTQSPGTLSLSPGERATLSCRASQSLGSSYLAWYQQKPGQAPRLLIYGASSRAPGIPDRFSGSGSGTDFTLTISRLEPEDFAVYYCQQYADSPITFGQGTKLEIK
notes: also called mAb6 ID No. 12
B21: mAb6 anti-TGFβ antibody ZTS-120-2, wildtype (antibody)
heavy: QVLLVQSGADVRKPGASVKIFCKASGYTFTSNVISWVRQTPAQGFEWMGGVIPIVDIANYAQRFKGRLVLTADTSTNTAYMELRSLKSADTAVYYCASTLGLVLDAMDYWGQGSLVTVSSASTTAPSVFPLAPSCGTTSGATVALACLVLGYFPEPVTVSWNSGALTSGVHTFPAVLQASGLYSLSSMVTVPSSRWLSDTFTCNVAHPPSNTKVDKTVRKTDHPPGPKPCDCPKCPPPEMLGGPSIFIFPPKPKDTLSISRTPEVTCLVVDLGPDDSDVQITWFVDNTQVYTAKTSPREEQFNSTYRVVSVLPILHQDWLKGKEFKCKVNSKSLPSPIERTISKAKGQPHEPQVYVLPPAQEELSRNKVSVTCLIKSFHPPDIAVEWEITGQPEPENNYRTTPPQLDSDGTYFVYSKLSVDRSHWQRGNTYTCSVSHEALHSHHTQKSLTQSPGK
light: EIQMTQSPSSLSASPGDRVTITCRASQSLGSSYLAWYQQKPGKVPKLLIYGASSRAPGVPSRFSGSGSGTDFTLTISSLEPEDAATYYCQQYADSPITFGQGTKLEIK
notes: also called mAb6 ID No. 14
B22: mAb6 anti-TGFβ antibody ZTS-310, wildtype (antibody, IgG1a)
heavy: QVLLVQSGAEVRRPGASVKIFCKASGYSFTSSWMNWLRQAPAQGFEWMGQIYPGDGDTNYNGKFKGRLTLTADTSTDTAYMELSSLRSADTAVYYCARHYDGSTDYWGHGTIVTVSSASTTAPSVFPLAPSCGTTSGATVALACLVLGYFPEPVTVSWNSGALTSGVHTFPAVLQASGLYSLSSMVTVPSSRWLSDTFTCNVAHPPSNTKVDKTVRKTDHPPGPKPCDCPKCPPPEMLGGPSIFIFPPKPKDTLSISRTPEVTCLVVDLGPDDSDVQITWFVDNTQVYTAKTSPREEQFNSTYRVVSVLPILHQDWLKGKEFKCKVNSKSLPSPIERTISKAKGQPHEPQVYVLPPAQEELSRNKVSVTCLIKSFHPPDIAVEWEITGQPEPENNYRTTPPQLDSDGTYFVYSKLSVDRSHWQRGNTYTCSVSHEALHSHHTQKSLTQSPGK
light: AITMTQSPGSLAGSPGQQVTMNCRASENIYSNLAWYQQKPGQHPKLLIYAATNLADGVPDRFSGSGSGTDFTLTISNLQAEDVASYYCQHFWGTPYTFGGGTK
notes: 'Feline IgG1a subclass B was used'; The listing names the entries heavy chain and light chain; also called mAb6 ID No. 1; ZTS-310 WT

biological target: T1, Feline FcRn (complex of FcRn-α subunit and β-microglobulin, C-terminal His tag) (feline, UniProt A0ABI7ZNY9 23-296; Q5MGS7 21-118); assay: SPR Biacore, biotin-FcRn on SA chip, pH 6
T1 construct: treated here as one molecule
Protocol: Feline FcRn was isolated, prepared and mutant Fc IgGs were assayed against feline FcRn according to Strietzel et. al., discussed above. Standard PCR was used to amplify feline FcRn-α subunit and β-microglobulin. FcRn-α subunit and β-microglobulin were co-transfected into HEK 293 cells and the FcRn complex was purified by IMAC affinity purification via the c-terminal His tag. FcRn complex was biotin labeled through BirA enzymatic biotinylatoin reaction. KD's were measured by Biacore T200 (GE Healthcare, Pittsburgh, PA, USA) or Biacore 8K (Cytiva, Marlborough, MA, USA) using a SA sensor chip.
(§1) FcRn was captured on the surface of the sensor using a modified SA capture method. 10 mM MES; 150 mM NaCl; 0.005% Tween20; 0.5 mg/mL BSA; pH6 was used as capture, method running buffer and titrations. 1×HBS-P, 0.5 mg/mL BSA; pH7.4 was also used for method running buffer and titrations. Fc mutant IgGs were flowed over receptor surfaces and affinity was determined using T200 evaluation software or Biacore Insight Evaluation software. Blank runs containing buffer only were subtracted out from all runs. Flow cells were regenerated using 50 mM Tris pH8 or pH9. Runs were performed at 15° C.

Row | Kd | Binder
1 | 40.6 nM | B1
2 | 18.8 nM | B2
3 | 17.2 nM | B3
4 | 28.3 nM | B4
5 | 18.9 nM | B5
6 | 63.9 nM | B6
7 | 44 nM | B7
8 | 42 nM | B8
9 | 63.4 nM | B9

biological target: Feline FcRn (complex of FcRn-α subunit and β-microglobulin, C-terminal His tag) (feline); assay: SPR Biacore, biotin-FcRn on SA chip, pH 6
Sequence (chain, as listed by the source, chain 1 of 2): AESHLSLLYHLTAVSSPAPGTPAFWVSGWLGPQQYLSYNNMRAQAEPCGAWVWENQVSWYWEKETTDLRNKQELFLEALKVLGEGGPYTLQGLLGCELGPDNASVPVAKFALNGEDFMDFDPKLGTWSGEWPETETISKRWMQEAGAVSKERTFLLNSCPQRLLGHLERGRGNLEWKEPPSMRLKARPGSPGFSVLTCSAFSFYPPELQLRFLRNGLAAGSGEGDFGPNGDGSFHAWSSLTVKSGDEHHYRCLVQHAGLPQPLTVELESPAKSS
Sequence (Q5MGS7 21-118, chain 2 of 2): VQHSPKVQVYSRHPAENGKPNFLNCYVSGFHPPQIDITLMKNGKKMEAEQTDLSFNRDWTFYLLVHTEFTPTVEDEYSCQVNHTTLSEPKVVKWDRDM

Row | Kd | Binder
10 | 37.9 nM | B10
11 | 49 nM | B11
12 | 25.5 nM | B12
13 | 29.7 nM | B13
14 | 16.7 nM | B14
15 | 18.8 nM | B15
16 | 21.4 nM | B16
17 | 8.65 nM | B17
18 | 33.2 nM | B18
19 | 18.6 nM | B19

biological target: T1, Feline FcRn (complex of FcRn-α subunit …); assay: SPR Biacore, FcRn on sensor, pH 6; pH 6
Protocol: As discussed in the above Example section, Feline FcRn was isolated, prepared and mutant Fc IgGs were assayed against feline FcRn according to Strietzelg et. al. Standard RACE PCR was used to amplify feline FcRn-α subunit and β-microglobulin. FcRn-α subunit and β-microglobulin were co-transfected into HEK 293 cells and the FcRn complex was purified by IMAC affinity purification via the c-terminal His tag. KD's were measured by Biacore 3000 or Biacore T200 (GE Healthcare, Pittsburgh, PA, USA) using a CM5 sensor chip.
as §1

Row | Kd | Binder
20 | 35.2 nM | B20
21 | 22.3 nM | B21
22 | 147 nM | B22
